This test concerns the target T1, human neuromedin U receptor 1 (human, UniProt Q9HB89 24-426).
T1 sequence (looked up): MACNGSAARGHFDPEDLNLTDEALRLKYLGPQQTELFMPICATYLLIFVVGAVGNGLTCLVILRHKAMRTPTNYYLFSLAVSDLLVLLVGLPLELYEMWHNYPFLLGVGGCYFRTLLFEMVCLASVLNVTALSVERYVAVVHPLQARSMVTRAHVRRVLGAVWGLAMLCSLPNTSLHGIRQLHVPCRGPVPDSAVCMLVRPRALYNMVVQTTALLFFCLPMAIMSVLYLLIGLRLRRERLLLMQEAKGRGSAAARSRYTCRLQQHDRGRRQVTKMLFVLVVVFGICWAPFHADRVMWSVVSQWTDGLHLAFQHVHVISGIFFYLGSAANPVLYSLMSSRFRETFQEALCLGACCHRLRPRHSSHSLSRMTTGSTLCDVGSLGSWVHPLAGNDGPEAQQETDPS
Nature of the test: cell-based or functional assay.

Bounds are passed on as bounds.

B1: C18DA-gGlu3-Sar6-AEPipAc-Tyr-Phe-NMeLeu-Nle-Arg-Pro-Arg-Gly-NH2 (peptide)
peptide: EEEXXXXXXXYFLXRPRG
HELM: PEPTIDE1{[O=C(O)CCCCCCCCCCCCCCCCC(=O)[*:2]].[gGlu].[gGlu].[gGlu].[Sar].[Sar].[Sar].[Sar].[Sar].[Sar].[O=C(CN1CCN(CCN[*:1])CC1)[*:2]].Y.F.[meL].[Nle].R.P.R.G.[am]}$$$$V2.0
SMILES: CCCC[C@H](NC(=O)[C@H](CC(C)C)N(C)C(=O)[C@H](Cc1ccccc1)NC(=O)[C@H](Cc1ccc(O)cc1)NC(=O)CN1CCN(CCNC(=O)CN(C)C(=O)CN(C)C(=O)CN(C)C(=O)CN(C)C(=O)CN(C)C(=O)CN(C)C(=O)CC[C@H](NC(=O)CC[C@H](NC(=O)CC[C@H](NC(=O)CCCCCCCCCCCCCCCCC(=O)O)C(=O)O)C(=O)O)C(=O)O)CC1)C(=O)N[C@@H](CCCNC(=N)N)C(=O)N1CCC[C@H]1C(=O)N[C@@H](CCCNC(=N)N)C(=O)NCC(N)=O
In the case of B1, the “EC50 (hNMUR1) buffer” value is 82 nM.

B2: C20DA-gGlu3-Sar12-AEPipAc-Tyr-Phe-NMeLeu-Nle-Arg-NMeAla-Arg-Gly-NH2 (peptide)
peptide: EEEXXXXXXXXXXXXXYFLXRARG
HELM: PEPTIDE1{[O=C(O)CCCCCCCCCCCCCCCCCCC(=O)[*:2]].[gGlu].[gGlu].[gGlu].[Sar].[Sar].[Sar].[Sar].[Sar].[Sar].[Sar].[Sar].[Sar].[Sar].[Sar].[Sar].[O=C(CN1CCN(CCN[*:1])CC1)[*:2]].Y.F.[meL].[Nle].R.[meA].R.G.[am]}$$$$V2.0
SMILES: CCCC[C@H](NC(=O)[C@H](CC(C)C)N(C)C(=O)[C@H](Cc1ccccc1)NC(=O)[C@H](Cc1ccc(O)cc1)NC(=O)CN1CCN(CCNC(=O)CN(C)C(=O)CN(C)C(=O)CN(C)C(=O)CN(C)C(=O)CN(C)C(=O)CN(C)C(=O)CN(C)C(=O)CN(C)C(=O)CN(C)C(=O)CN(C)C(=O)CN(C)C(=O)CN(C)C(=O)CC[C@H](NC(=O)CC[C@H](NC(=O)CC[C@H](NC(=O)CCCCCCCCCCCCCCCCCCC(=O)O)C(=O)O)C(=O)O)C(=O)O)CC1)C(=O)N[C@@H](CCCNC(=N)N)C(=O)N(C)[C@@H](C)C(=O)N[C@@H](CCCNC(=N)N)C(=O)NCC(N)=O
With B2, the “EC50 (hNMUR1) buffer” value stood at 670 nM.

B3: C18DA-gGlu3-Sar9-AEPipAc-Tyr-Phe-NMeLeu-Nle-Arg-Pro-Arg-Gly-NH2 (peptide)
peptide: EEEXXXXXXXXXXYFLXRPRG
HELM: PEPTIDE1{[O=C(O)CCCCCCCCCCCCCCCCC(=O)[*:2]].[gGlu].[gGlu].[gGlu].[Sar].[Sar].[Sar].[Sar].[Sar].[Sar].[Sar].[Sar].[Sar].[O=C(CN1CCN(CCN[*:1])CC1)[*:2]].Y.F.[meL].[Nle].R.P.R.G.[am]}$$$$V2.0
SMILES: CCCC[C@H](NC(=O)[C@H](CC(C)C)N(C)C(=O)[C@H](Cc1ccccc1)NC(=O)[C@H](Cc1ccc(O)cc1)NC(=O)CN1CCN(CCNC(=O)CN(C)C(=O)CN(C)C(=O)CN(C)C(=O)CN(C)C(=O)CN(C)C(=O)CN(C)C(=O)CN(C)C(=O)CN(C)C(=O)CN(C)C(=O)CC[C@H](NC(=O)CC[C@H](NC(=O)CC[C@H](NC(=O)CCCCCCCCCCCCCCCCC(=O)O)C(=O)O)C(=O)O)C(=O)O)CC1)C(=O)N[C@@H](CCCNC(=N)N)C(=O)N1CCC[C@H]1C(=O)N[C@@H](CCCNC(=N)N)C(=O)NCC(N)=O
In the case of B3, the “EC50 (hNMUR1) buffer” value came to 150 nM.

B4: C18DA-gGlu3-Sar9-AEPipAc-Tyr-Phe-NMeLeu-Nle-Orn-NMeAla-Arg-Gly-NH2 (peptide)
peptide: EEEXXXXXXXXXXYFLXXARG
HELM: PEPTIDE1{[O=C(O)CCCCCCCCCCCCCCCCC(=O)[*:2]].[gGlu].[gGlu].[gGlu].[Sar].[Sar].[Sar].[Sar].[Sar].[Sar].[Sar].[Sar].[Sar].[O=C(CN1CCN(CCN[*:1])CC1)[*:2]].Y.F.[meL].[Nle].[Orn].[meA].R.G.[am]}$$$$V2.0
SMILES: CCCC[C@H](NC(=O)[C@H](CC(C)C)N(C)C(=O)[C@H](Cc1ccccc1)NC(=O)[C@H](Cc1ccc(O)cc1)NC(=O)CN1CCN(CCNC(=O)CN(C)C(=O)CN(C)C(=O)CN(C)C(=O)CN(C)C(=O)CN(C)C(=O)CN(C)C(=O)CN(C)C(=O)CN(C)C(=O)CN(C)C(=O)CC[C@H](NC(=O)CC[C@H](NC(=O)CC[C@H](NC(=O)CCCCCCCCCCCCCCCCC(=O)O)C(=O)O)C(=O)O)C(=O)O)CC1)C(=O)N[C@@H](CCCN)C(=O)N(C)[C@@H](C)C(=O)N[C@@H](CCCNC(=N)N)C(=O)NCC(N)=O
For the molecule B4, the “EC50 (hNMUR1) buffer” value is more than 1000 nM.

B5: C18DA-gGlu2-Sar9-AEPipAc-Tyr-Phe-NMeLeu-Nle-Arg-NMeAla-Arg-Gly-NH2 (peptide)
peptide: EEXXXXXXXXXXYFLXRARG
HELM: PEPTIDE1{[O=C(O)CCCCCCCCCCCCCCCCC(=O)[*:2]].[gGlu].[gGlu].[Sar].[Sar].[Sar].[Sar].[Sar].[Sar].[Sar].[Sar].[Sar].[O=C(CN1CCN(CCN[*:1])CC1)[*:2]].Y.F.[meL].[Nle].R.[meA].R.G.[am]}$$$$V2.0
SMILES: CCCC[C@H](NC(=O)[C@H](CC(C)C)N(C)C(=O)[C@H](Cc1ccccc1)NC(=O)[C@H](Cc1ccc(O)cc1)NC(=O)CN1CCN(CCNC(=O)CN(C)C(=O)CN(C)C(=O)CN(C)C(=O)CN(C)C(=O)CN(C)C(=O)CN(C)C(=O)CN(C)C(=O)CN(C)C(=O)CN(C)C(=O)CC[C@H](NC(=O)CC[C@H](NC(=O)CCCCCCCCCCCCCCCCC(=O)O)C(=O)O)C(=O)O)CC1)C(=O)N[C@@H](CCCNC(=N)N)C(=O)N(C)[C@@H](C)C(=O)N[C@@H](CCCNC(=N)N)C(=O)NCC(N)=O
Take B5: the “EC50 (hNMUR1) buffer” value was determined as 550 nM.

B6: C18DA-gGlu2-Sar6-AEPipAc-Tyr-Phe-NMeLeu-Nle-Arg-Pro-Arg-Gly-NH2 (peptide)
peptide: EEXXXXXXXYFLXRPRG
HELM: PEPTIDE1{[O=C(O)CCCCCCCCCCCCCCCCC(=O)[*:2]].[gGlu].[gGlu].[Sar].[Sar].[Sar].[Sar].[Sar].[Sar].[O=C(CN1CCN(CCN[*:1])CC1)[*:2]].Y.F.[meL].[Nle].R.P.R.G.[am]}$$$$V2.0
SMILES: CCCC[C@H](NC(=O)[C@H](CC(C)C)N(C)C(=O)[C@H](Cc1ccccc1)NC(=O)[C@H](Cc1ccc(O)cc1)NC(=O)CN1CCN(CCNC(=O)CN(C)C(=O)CN(C)C(=O)CN(C)C(=O)CN(C)C(=O)CN(C)C(=O)CN(C)C(=O)CC[C@H](NC(=O)CC[C@H](NC(=O)CCCCCCCCCCCCCCCCC(=O)O)C(=O)O)C(=O)O)CC1)C(=O)N[C@@H](CCCNC(=N)N)C(=O)N1CCC[C@H]1C(=O)N[C@@H](CCCNC(=N)N)C(=O)NCC(N)=O
Consider B6, for which the “EC50 (hNMUR1) buffer” value worked out at 130 nM.

B7: C20DA-gGlu3-Sar9-AEPipAc-Tyr-Phe-NMeLeu-Nle-Arg-NMeAla-Arg-Gly-NH2 (peptide)
peptide: EEEXXXXXXXXXXYFLXRARG
HELM: PEPTIDE1{[O=C(O)CCCCCCCCCCCCCCCCCCC(=O)[*:2]].[gGlu].[gGlu].[gGlu].[Sar].[Sar].[Sar].[Sar].[Sar].[Sar].[Sar].[Sar].[Sar].[O=C(CN1CCN(CCN[*:1])CC1)[*:2]].Y.F.[meL].[Nle].R.[meA].R.G.[am]}$$$$V2.0
SMILES: CCCC[C@H](NC(=O)[C@H](CC(C)C)N(C)C(=O)[C@H](Cc1ccccc1)NC(=O)[C@H](Cc1ccc(O)cc1)NC(=O)CN1CCN(CCNC(=O)CN(C)C(=O)CN(C)C(=O)CN(C)C(=O)CN(C)C(=O)CN(C)C(=O)CN(C)C(=O)CN(C)C(=O)CN(C)C(=O)CN(C)C(=O)CC[C@H](NC(=O)CC[C@H](NC(=O)CC[C@H](NC(=O)CCCCCCCCCCCCCCCCCCC(=O)O)C(=O)O)C(=O)O)C(=O)O)CC1)C(=O)N[C@@H](CCCNC(=N)N)C(=O)N(C)[C@@H](C)C(=O)N[C@@H](CCCNC(=N)N)C(=O)NCC(N)=O
For B7, the “EC50 (hNMUR1) buffer” value was found to be 440 nM.

B8: C18DA-gGlu2-Sar9-AEPipAc-Tyr-Phe-NMeLeu-Nle-Arg-Pro-Arg-Gly-NH2 (peptide)
peptide: EEXXXXXXXXXXYFLXRPRG
HELM: PEPTIDE1{[O=C(O)CCCCCCCCCCCCCCCCC(=O)[*:2]].[gGlu].[gGlu].[Sar].[Sar].[Sar].[Sar].[Sar].[Sar].[Sar].[Sar].[Sar].[O=C(CN1CCN(CCN[*:1])CC1)[*:2]].Y.F.[meL].[Nle].R.P.R.G.[am]}$$$$V2.0
SMILES: CCCC[C@H](NC(=O)[C@H](CC(C)C)N(C)C(=O)[C@H](Cc1ccccc1)NC(=O)[C@H](Cc1ccc(O)cc1)NC(=O)CN1CCN(CCNC(=O)CN(C)C(=O)CN(C)C(=O)CN(C)C(=O)CN(C)C(=O)CN(C)C(=O)CN(C)C(=O)CN(C)C(=O)CN(C)C(=O)CN(C)C(=O)CC[C@H](NC(=O)CC[C@H](NC(=O)CCCCCCCCCCCCCCCCC(=O)O)C(=O)O)C(=O)O)CC1)C(=O)N[C@@H](CCCNC(=N)N)C(=O)N1CCC[C@H]1C(=O)N[C@@H](CCCNC(=N)N)C(=O)NCC(N)=O
With B8, the “EC50 (hNMUR1) buffer” value is 90 nM.

B9: C18DA-gGlu3-Sar9-AEPipAc-Tyr-Phe-NMeLeu-Nle-Arg-NMeAla-Arg-Gly-NH2 (peptide)
peptide: EEEXXXXXXXXXXYFLXRARG
HELM: PEPTIDE1{[O=C(O)CCCCCCCCCCCCCCCCC(=O)[*:2]].[gGlu].[gGlu].[gGlu].[Sar].[Sar].[Sar].[Sar].[Sar].[Sar].[Sar].[Sar].[Sar].[O=C(CN1CCN(CCN[*:1])CC1)[*:2]].Y.F.[meL].[Nle].R.[meA].R.G.[am]}$$$$V2.0
SMILES: CCCC[C@H](NC(=O)[C@H](CC(C)C)N(C)C(=O)[C@H](Cc1ccccc1)NC(=O)[C@H](Cc1ccc(O)cc1)NC(=O)CN1CCN(CCNC(=O)CN(C)C(=O)CN(C)C(=O)CN(C)C(=O)CN(C)C(=O)CN(C)C(=O)CN(C)C(=O)CN(C)C(=O)CN(C)C(=O)CN(C)C(=O)CC[C@H](NC(=O)CC[C@H](NC(=O)CC[C@H](NC(=O)CCCCCCCCCCCCCCCCC(=O)O)C(=O)O)C(=O)O)C(=O)O)CC1)C(=O)N[C@@H](CCCNC(=N)N)C(=O)N(C)[C@@H](C)C(=O)N[C@@H](CCCNC(=N)N)C(=O)NCC(N)=O
B9: the “EC50 (hNMUR1) buffer” value was 540 nM.

Values taken from patent US20240279278A1, “NMU RECEPTOR 2 AGONISTS” (Boehringer Ingelheim International GmbH, priority 2023, published 2024).
